Reference: PMC2151178

Target: DdUnc104 (Dictyostelium Unc104), 245-kD kinesin (Dictyostelium discoideum (endogenous in wild-type cells)) (UniProt Q9NGQ2)
Assay: SEC + other: sucrose density gradient velocity sedimentation

A stoichiometry N of 2 was found for “DdUnc104 (Dictyostelium Unc104), 245-kD kinesin, Q9NGQ2 1-2205” in this work.
